Test results taken from publication PMC4122463, “Application of Two Newly Identified and Characterized Feruloyl Esterases from Streptomyces sp. in the Enzymatic Production of Ferulic Acid from Agricultural Biomass” (PLoS ONE, 2014).

Experiments:
Type in all cases: biochemical, Streptomyces cinnamoneus
[1] = substrate: COC(=O)/C=C/c1ccc(O)cc1; assay: HPLC of released phenolic acid; conditions: 50 mM Tris maleate, 40 °C, 30 min
Description: (§1) HPLC of released phenolic acid on R43

[2] = substrate: CCOC(=O)/C=C/c1ccc(O)c(OC)c1; assay: HPLC of released phenolic acid; conditions: 50 mM Tris maleate, 40 °C, 30 min
Description: as §1

[3] = substrate: COC(=O)/C=C/c1ccc(O)c(O)c1; assay: HPLC of released phenolic acid; conditions: 50 mM Tris maleate, 40 °C, 30 min
Description: as §1

[4] = substrate: COC(=O)/C=C/c1cc(OC)c(O)c(OC)c1; assay: HPLC of released phenolic acid; conditions: 50 mM Tris maleate, 40 °C, 30 min
Description: as §1

[5] = substrate: COC(=O)/C=C/c1ccc(O)c(OC)c1; assay: HPLC of released phenolic acid; conditions: 50 mM Tris maleate, 40 °C, 30 min
Description: as §1

purified protein = substrate: CCCC(=O)Oc1ccc([N+](=O)[O-])cc1; assay: purified protein; conditions: general esterase assay
[6] = substrate: COC(=O)/C=C/c1ccc(O)cc1; assay: HPLC of released phenolic acid; conditions: 50 mM Tris maleate, 50 °C, 30 min
Description: (§2) HPLC of released phenolic acid on R18

[7] = substrate: CCOC(=O)/C=C/c1ccc(O)c(OC)c1; assay: HPLC of released phenolic acid; conditions: 50 mM Tris maleate, 50 °C, 30 min
Description: as §2

[8] = substrate: COC(=O)/C=C/c1ccc(O)c(O)c1; assay: HPLC of released phenolic acid; conditions: 50 mM Tris maleate, 50 °C, 30 min
Description: as §2

[9] = substrate: COC(=O)/C=C/c1cc(OC)c(O)c(OC)c1; assay: HPLC of released phenolic acid; conditions: 50 mM Tris maleate, 50 °C, 30 min
Description: as §2

[10] = substrate: COC(=O)/C=C/c1ccc(O)c(OC)c1; assay: HPLC of released phenolic acid; conditions: 50 mM Tris maleate, 50 °C, 30 min
Description: as §2

B1: R43 (Streptomyces cinnamoneus) (protein)
chain: MEIRTAQGIVRGELTAGGLAVFRGVPYARPPVGNLRFAAPQPPLPWDGVRDALAFGPPPPQSGPARVPGDPAGTDWLTLNVWTPDPGGSGLPVLVWIPGGAYVSGAAGDPLYDAALLAGQGGLVVVTLNYRLGAEGFAHLPGVPDNRGLLDQLAALDWVRQNIARFGGNPDRVTLCGQSAGAGSIATLLAAPRAAGLFRRAITQSVPGLYATCALAADVTADLAARLGTTPTTAGLAAVSPQRLADAIDPLMEELPARIDRWGRLARSGVPFLPVVDGDVVPDVPWRSLRDGRASETDLLTGHTRDEFRPFLMLSGHPEKITDEDATAALRALAPAPDGERAYRAAHPDASPAALFELLYSDVLFRMPSLHLADAHSAGGGTAHLYELCLSAPALGGALGAAHGLDVSLLFGTYSAPAARLFYGEEPPPEDVLALGDDIRRSWASFAAHGDPGWPAYRVTDGRLTGLLDTGTGAGPYPEDASRRIWEGHGVEPFDLV
notes: full length, no signal peptide, secreted from Streptomyces expression host (pTONA vector); 498 aa; about 52 kDa; N-terminus at residue 1; monomer; powdered enzyme
Km [1]: 3.00 ± 0.26 mM | Vmax [1]: 0.00817 µmol/min/mg | Km [2]: 1.96 ± 0.14 mM | Vmax [2]: 0.0153 µmol/min/mg | Km [3]: 2.61 ± 0.25 mM | Vmax [3]: 0.0021 µmol/min/mg | Km [4]: 0.54 ± 0.07 mM | Vmax [4]: 0.00104 µmol/min/mg | Km [5]: 4.41 ± 0.36 mM | Vmax [5]: 0.042 µmol/min/mg | Km (purified protein): 0.17 ± 0.05 mM | Vmax (purified protein): 0.00056 µmol/min/mg

B2: R18 (Streptomyces cinnamoneus) (protein)
chain: ATAGQEVPAPATRIPLGTKTLHLVDASRQDPWKPSAGNRELMVTLWYPSLPSREPAAPYVSKPLSRAVLGNDVLAGVRTHAVAGARPAPVPRPLVVLSPGFGMSRITLTALGEDLASRGYAVAAVDHTYEAPVEFPGGRIEKCTLCDDSRMDPGAVVRNRAKDLRFVLDRLTGPGSELRVDARRIGVAGHSIGGASAVEVMREDRRVDAAINLDGNFFTEPPAEGLNKPVLLLGARRSGLPEPQENWERAWKQLTGWKRWLDVPAGGHMTFTDVPWIVDRFGMPGQIPPEQVEGQLGTVSAARATAVTRNYVAAFFDRHLRGRPSPLLDRPSSAHPEVTFMK
notes: secreted from Streptomyces expression host (pTONA vector), signal peptide removed; mature N-terminus at residue 42 of 383; about 38 kDa; monomer; powdered enzyme
Km [6]: 4.31 ± 0.26 mM | Vmax [6]: 0.0262 µmol/min/mg | Km [7]: 4.28 ± 0.36 mM | Vmax [7]: 0.0406 µmol/min/mg | Km [8]: 3.31 ± 0.31 mM | Vmax [8]: 0.00752 µmol/min/mg | Km [9]: 9.39 ± 1.43 mM | Vmax [9]: 0.0367 µmol/min/mg | Km [10]: 4.99 ± 1.72 mM | Vmax [10]: 0.0523 µmol/min/mg
